The source of these data is the Immune Epitope Database (IEDB).

For assay [1], the target named is HLA-B*51:01. The experiment in a line: IEDB peptide-MHC binding, purified MHC/competitive/fluorescence; filed as Kd, often an IC50 or EC50 that approximates it; ≥ and ≤ were set here for values at or beyond the usual limits of such assays.
Assay [2] addresses HLA-A*30:01. The experiment in a line: IEDB peptide-MHC binding, purified MHC/competitive/radioactivity; filed as Kd, often an IC50 or EC50 that approximates it; ≥ and ≤ were set here for values at or beyond the usual limits of such assays.
The target of assay [3] is HLA-A*24:02. The assay is described as follows: IEDB peptide-MHC binding, purified MHC/competitive/fluorescence; ≥ and ≤ were set here for values at or beyond the usual limits of such assays.
Assay [4] concerns the target HLA-B*53:01. The experiment in a line: IEDB peptide-MHC binding, purified MHC/competitive/radioactivity; filed as Kd, often an IC50 or EC50 that approximates it; ≥ and ≤ were set here for values at or beyond the usual limits of such assays.
In assay [5] the target is HLA-A*24:02. The assay is described as above.
The target in assay [6] is HLA-A*23:01. The assay is described as above.
Assay [7] deals with HLA-B*51:01. The assay is described as above.
Assay [8] concerns the target HLA-A*01:01. The assay is described as follows: IEDB peptide-MHC binding, purified MHC/direct/fluorescence; filed as Kd, often an IC50 or EC50 that approximates it; ≥ and ≤ were set here for values at or beyond the usual limits of such assays.
Assay [9] deals with HLA-B*35:01. The assay is described as follows: IEDB peptide-MHC binding, purified MHC/competitive/radioactivity; filed as Kd, often an IC50 or EC50 that approximates it; ≥ and ≤ were set here for values at or beyond the usual limits of such assays.
Assay [10] concerns the target HLA-A*30:02. The assay is described as above.
The target in assay [11] is HLA-B*40:01. The experiment in a line: IEDB peptide-MHC binding, purified MHC/direct/fluorescence; filed as Kd, often an IC50 or EC50 that approximates it; ≥ and ≤ were set here for values at or beyond the usual limits of such assays. The settings on record: source organism: Mycobacterium tuberculosis.
Assay [12] has as its target HLA-A*02:01. The assay is described as follows: IEDB peptide-MHC binding, purified MHC/competitive/fluorescence; ≥ and ≤ were set here for values at or beyond the usual limits of such assays.
The target of assay [13] is HLA-A*02:01. The experiment in a line: IEDB peptide-MHC binding, purified MHC/competitive/fluorescence; filed as Kd, often an IC50 or EC50 that approximates it; ≥ and ≤ were set here for values at or beyond the usual limits of such assays.
Assay [14] addresses HLA-A*26:01. Described as above.
For assay [15], the target named is HLA-A*01:01. The experiment in a line: IEDB peptide-MHC binding, purified MHC/competitive/radioactivity; filed as Kd, often an IC50 or EC50 that approximates it; ≥ and ≤ were set here for values at or beyond the usual limits of such assays.
Assay [16] deals with HLA-A*26:01. The assay is described as above. The settings on record: source organism: Dengue virus 4 Philippines/H241/1956.
Assay [17] addresses HLA-B*46:01. The experiment in a line: IEDB peptide-MHC binding, purified MHC/competitive/fluorescence; filed as Kd, often an IC50 or EC50 that approximates it; ≥ and ≤ were set here for values at or beyond the usual limits of such assays. The settings on record: source organism: Yellow fever virus.
Setting [18] is: source organism: Vaccinia virus WR.
Setting [19] is: source organism: Dengue virus 4 Philippines/H241/1956.
Setting [20] is: source organism: Dengue virus 1 Brazil/97-11/1997.
[21] abbreviates: source organism: Dengue virus 2 Jamaica/1409/1983.
Where [22] appears, read: source organism: Zaire ebolavirus.
[23] abbreviates: source organism: Dengue virus 3 Martinique/1243/1999.
The mark [24] stands for this setting: source organism: Dengue virus 4 Dominica/814669/1981.

In turn, FPPEIINVI returned a Kd in [1] (source organism: Variola virus) of 0.213 µM.

With KVKKLNRCA, the Kd in [2] (setting [18]) is 0.00312 µM.

In assay [3] (source organism: Variola virus), GRVNPGTYV came in with an IC50 of 0.0743 µM.

In the case of QPENLEYTI, the Kd in assay [4] (source organism: Dengue virus 2 16681-PDK53) was determined as 0.028 µM.

As for VTRKHMILV, the Kd in [2] (setting [19]) amounted to 0.0194 µM.

As to DYMTSMKRF, the Kd in assay [5] (setting [20]) was 0.214 µM; in [6] (setting [20]), 0.791 µM.

For GPLRMVLAFI, the Kd in assay [7] (setting [19]) is at least 35.5 µM.

As for KSSLEVYIY, in [8] (source organism: Orthohantavirus hantanense), the Kd amounted to 0.158 µM.

As for LPLPWLPGAD, the Kd in assay [7] (setting [21]) is at least 32.6 µM; in [9] (setting [21]) it was 2.49 µM.

On to WVIILFQRT, for which, in assay [3] (setting [22]), the IC50 was at least 1990 µM.

For RLKDYQHFV, the Kd in assay [2] (setting [18]) worked out at 0.000394 µM.

Consider SIGKMLESTY, for which the dissociation constant (Kd) in [10] (setting [19]) came out at 1.56 µM.

As for LEVPAMGVL, in [11], the Kd came out at 0.025 µM.

On to SWHYDQDHPY, for which the Kd in [10] (setting [21]) is at least 69.7 µM.

Regarding GLAWIPYFG, the IC50 in assay [3] (setting [22]) is 62.6 µM; in [12] (setting [22]), 0.134 µM.

As to YLYQPCDLL, the Kd in assay [13] (setting [18]) amounted to 0.0002 µM.

Take SVKCTHPLV: the Kd in assay [2] (setting [18]) is 0.000968 µM.

As for LAFSIMKSV, the Kd in [7] (setting [23]) was 0.155 µM.

In [3] (setting [18]), PFIRNPNKM returned an IC50 of 0.0658 µM. That is a double-digit nanomolar value.

As for STRVGMGEA, the Kd in assay [2] (setting [20]) turned out to be 0.00502 µM.

In assay [13] (source organism: Variola virus), KLGFDEIKGL registered a Kd of 0.134 µM.

On to PFARLLNLS, for which the IC50 is 15.8 µM in assay [3] (setting [22]) and at least 309 µM in assay [12] (setting [22]).

For TTRGETLFY, the Kd in [14] (source organism: Yersinia pestis Nepal516) is 0.0341 µM.

For VTYKCPLLV, the Kd in assay [15] (setting [24]) was determined as 2.19 µM.

As to RGRIGRNPA, in assay [2] (setting [19]), the Kd worked out at 0.0323 µM.

As for VTTWENVPY, the Kd is 0.59 µM in [15] (setting [23]) and 0.0109 µM in assay [10] (setting [23]).

For the sequence KGKRALTPPV, in assay [2] (setting [24]), the dissociation constant (Kd) turned out to be 0.0124 µM.

Take AFWETKKNL: the IC50 in assay [3] (setting [22]) was 2.48 µM; in [12] (setting [22]) it was at least 242 µM.

Regarding NSRHNAQHK, the Kd in assay [8] (source organism: Salmonella enterica subsp. enterica serovar Typhimurium) is at least 20 µM.

As to VSSWEEVPY, the values for the Kd in assay [15] (setting [20]) and in assay [10] (setting [20]) were 0.269 µM and 1.86 µM, respectively.

Regarding RHERGRPLLF, in [6] (setting [19]), the Kd is 0.248 µM.

Turning to ITYGACPRY, the Kd in assay [14] (source organism: Influenza A virus (A/Sichuan/2/1987(H3N2))) was 0.0343 µM.

On to IPITAAAWY, for which the Kd was found to be 0.00247 µM in [10] (setting [21]), 0.0266 µM in assay [4] (setting [21]) and 0.00619 µM in assay [9] (setting [21]).

Sequence NYTENTSSY gave a concentration for half-maximal inhibition (IC50) in [3] (source organism: Sudan ebolavirus) of 6.23 µM.

Consider HAFSSLLSG, for which the Kd in [2] (setting [18]) came to 1.11 µM.

For the sequence FMSMVSHEL, in assay [13] (source organism: Bacillus anthracis str. A0488), the Kd was determined as 0.0005 µM.

Take ILPWTKISE: the IC50 was 33.1 µM in [3] (setting [18]) and at least 247 µM in assay [12] (setting [18]).

In [1] (source organism: Brucella abortus S19), CPLVLDFII yielded a Kd of 0.323 µM.

MRTNFLIKF: the results for the IC50 in assay [3] (setting [22]) and in assay [12] (setting [22]) were 4.17 µM and at least 673 µM, respectively.

For the sequence YYMATLKNVT, the Kd in [5] (setting [19]) worked out at 1.54 µM.

On to VPPLPLFIF, for which, in assay [7] (setting [23]), the Kd was found to be 3.58 µM.

Turning to NNLEEICQL, in assay [12] (setting [22]), the IC50 was at least 225 µM.

For the sequence HTAITQVRNL, in assay [16], the Kd came to 2.27 µM.

In turn, TAVDFGNSY came in with a Kd in assay [17] of 0.116 µM.

Regarding RVFNEYGFV, the Kd in assay [2] (setting [18]) is 0.142 µM.

Take TPQDNQLAY: in assay [9] (setting [20]), the Kd was found to be 0.0103 µM.

As to RSLETDLRS, the IC50 in assay [12] (source organism: Vaccinia virus) was at least 158 µM.

For the sequence LPIRYQTPAI, the results for the equilibrium dissociation constant (Kd) in assay [4] (setting [21]), in assay [7] (setting [21]) and in [9] (setting [21]) were 0.0135 µM, 0.0691 µM and 0.0519 µM, respectively.
